B1: human SOSTDC1 (Sclerostin domain containing protein 1) (natural protein, UniProt Q6X4U4 24-206, looked up)
chain: FKNDATEILYSHVVKPVPAHPSSNSTLNQARNGGRHFSNTGLDRNTRVQVGCRELRSTKYISDGQCTSISPLKELVCAGECLPLPVLPNWIGGGYGTKYWSRRSSQEWRCVNDKTRTQRIQLQCQDGSTRTYKITVVTACKCKRYTRQHNESSHNFESMSPAKPVQHHRERKRASKSSKHSMS
modifications: native glycosylation
notes: signal peptide in the construct; SOSTDC1, human, full-length gene made by gene synthesis and codon optimised (GenScript), in pcDNA4 (pCDNA4-hSOSTDC1-PP-Myc-His); secreted into conditioned medium; after cleavage the residues LEVLFQ probably stay on the C-terminus (surmised); The secreted protein probably lacks its signal peptide (surmised); also called hSOSTDC1; Wise; source: Expi293F, transiently …
B2: chicken SOSTDC1 (Sclerostin domain containing protein 1), residues 23-206 (natural protein, UniProt Q6VYA3 23-206, looked up)
chain: AFKNDATEILYSHVVKPAPASPSSNSTLNQARNGGRHYAGTGSDRNNRVQVGCRELRSTKYISDGQCTSINPLKELVCAGECLPLPLLPNWIGGGYGTKYWSRRSSQEWRCVNDKTRTQRIQLQCQDGSIRTYKITVVTACKCKRYTRQHNESSHNFEGTSQAKPVQHHKERKRASKSSKHSTS
notes: SOSTDC1, chicken, amino acid residues 23-206, cloned into pET21a from pCS2-Flag-cSOSTDC1; 20.7 kDa; The vector is pET21a; also called cSOSTDC1; Wise
B3: Gremlin2 (natural protein)
chain: RKNRPAGAIPSPYKDGSSNNSERWHHQIKEVLASSQEALVVTERKYLKSDWCKTQPLRQTVSEEGCRSRTILNRFCYGQCNSFYIPRHVKKEEDSFQSCAFCKPQRVTSVIVELECPGLDPPFRIKKIQKVKHCRCMSVNLSDSDKQ
notes: Gremlin2 (Grem2); also called Grem2

Tests used:
[1] = molecular target: the molecule itself; experiment: SEC; analytical SEC, Superdex S75 HR 10/300, room temperature, 0.5 ml/min, 20 mM HEPES, 1 M NaCl, pH 7.5; 100-150 µg protein loaded; self-association
[2] = molecular target: the molecule itself; experiment: SEC; protein that was monomeric at low pH (pH 3.0) neutralised to pH 7.5 and run again on SEC

| Protein | stoichiometry N [1] | stoichiometry N [2] |
| --- | --- | --- |
| B1 | 2 | – |
| B2 | 2 | – |
| B3 | – | 2 |

From article PMC7473711, “Characterization of the different oligomeric states of the DAN family antagonists SOSTDC1 and SOST” (Biochemical Journal, 2020)
